The text below walks through data of publication PMC6628679 (2019).

One may read the Kd as the constant that tells how readily two partners part at equilibrium. A lower Kd goes with higher affinity.

The data set deals with the molecule itself.

B1: PfPKG (protein)
chain: MEEDDNLKKGNERNKKKAIFSNDDFTGEDSLMEDHLELREKLSEDIDMIKTSLKNNLVCSTLNDNEILTLSNYMQFFVFKSGNLVIKQGEKGSYFFIINSGKFDVYVNDKKVKTMGKGSSFGEAALIHNTQRSATIIAETDGTLWGVQRSTFRATLKQLSNRNFNENRTFIDSVSVFDMLTEAQKNMITNACVIQNFKSGETIVKQGDYGDVLYILKEGKATVYINDEEIRVLEKGSYFGERALLYDEPRSATIIAKEPTACASICRKLLNIVLGNLQVVLFRNIMTEALQQSEIFKQFSGDQLNDLADTAIVRDYPANYNILHKDKVKSVKYIIVLEGKVELFLDDTSIGILSRGMSFGDQYVLNQKQPFKHTIKSLEVCKIALITETCLADCLGNNNIDASIDYNNKKSIIKKMYIFRYLTDKQCNLLIEAFRTTRYEEGDYIIQEGEVGSRFYIIKNGEVEIVKNKKRLRTLGKNDYFGERALLYDEPRTASVISKVNNVECWFVDKSVFLQIIQGPMLAHLEERIKMQDTKVEMDELETERIIGRGTFGTVKLVHHKPTKIRYALKCVSKRSIINLNQQNNIKLEREITAENDHPFIIRLVRTFKDSKYFYFLTELVTGGELYDAIRKLGLLSKSQAQFYLGSIILAIEYLHERNIVYRDLKPENILLDKQGYVKLIDFGCAKKVQGRAYTLVGTPHYMAPEVILGKGYGCTVDIWALGICLYEFICGPLPFGNDEEDQLEIFRDILTGQLTFPDYVTDTDSINLMKRLLCRLPQGRIGCSINGFKDIKDHPFFSNFNWDKLAGRLLDPPLVSKSETYAEDIDIKQIEEEDAEDDEEPLNDEDNWDIDF
Regarding B1, the Kd is ~32 µM.
